Experimental data reported in PMC3971960 (Biochemistry, 2014).

Legend:
[1] = target: T1, BlaI (Staphylococcus aureus, UniProt P0A042 1-126); test: fluorescence anisotropy
T1 sequence: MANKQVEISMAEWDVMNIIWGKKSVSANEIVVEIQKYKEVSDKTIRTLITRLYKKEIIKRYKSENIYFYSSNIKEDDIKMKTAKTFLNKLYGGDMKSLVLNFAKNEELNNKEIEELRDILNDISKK

[2] = target: T2, MecI (Staphylococcus aureus NRS70 (N315), UniProt P68261 1-123); test: fluorescence anisotropy
T2 sequence: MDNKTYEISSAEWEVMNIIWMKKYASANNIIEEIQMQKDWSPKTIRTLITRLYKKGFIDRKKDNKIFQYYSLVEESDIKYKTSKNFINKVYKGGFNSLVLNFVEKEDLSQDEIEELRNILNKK

[3] = target: the molecule itself; test: MALDI mass spectrometry
[4] = target: the molecule itself; test: AUC

B1: mec dsDNA (mec operator) (dsDNA)
DNA 1: ATATAAGACTACATTTGTAGTATATTACAAATGTAGTATTT
DNA 2: AAATACTACATTTGTAATATACTACAAATGTAGTCTTATAT
Kd [1]: 13 ± 6 nM
Kd [2]: < 10 nM

B2: MecI (natural protein, S. aureus NRS70 (N315), UniProt P68261 1-123, looked up)
chain: T2 sequence
stoichiometry N [3]: 5
Kd [4]: 300 ± 30 nM
stoichiometry N [4]: 2
